Consider one substance from patent publication US20250042984A1.

Assay [1] concerns the target VEGF-B (extracellular domain) (UniProt P49765). The assay can be described thus: potency ELISA, VEGF-B coated plate; 160 mg/mL formulation in glass vials, 1 month at 5 C. For orientation: An ELISA detects its analyte on a solid surface through an enzyme-linked reagent.
Assay [2] shares this target. The assay can be described thus: potency ELISA, VEGF-B coated plate; 160 mg/mL formulation in glass vials, 3 months at 5 C.
Assay [3] shares this target. Put plainly: potency ELISA, VEGF-B coated plate; 160 mg/mL formulation in glass vials, 6 months at 5 C.
Assay [4] has the same target. The assay can be described thus: potency ELISA, VEGF-B coated plate; 160 mg/mL formulation in glass vials, 9 months at 5 C.
Assay [5] shares this target. The assay can be described thus: potency ELISA, VEGF-B coated plate; 160 mg/mL formulation in glass vials, 1 month at 25 C.
The target is the same in assay [6]. Put plainly: potency ELISA, VEGF-B coated plate; 160 mg/mL formulation in glass vials, 1 month at 35 C.
Assay [7] shares this target. Put plainly: potency ELISA, VEGF-B coated plate; 160 mg/mL formulation in glass vials, 12 months at 5 C.
Assay [8] shares this target. Put plainly: potency ELISA, VEGF-B coated plate; 160 mg/mL formulation in glass vials, 3 months at 25 C.
The target is the same in assay [9]. Put plainly: potency ELISA, VEGF-B coated plate; 160 mg/mL formulation in glass vials, 6 months at 25 C.
The target is the same in assay [10]. The assay can be described thus: potency ELISA, VEGF-B coated plate; 160 mg/mL formulation in glass vials, 9 months at 25 C.
For assay [11] the target is unchanged. Put plainly: potency ELISA, VEGF-B coated plate; 160 mg/mL formulation in glass vials, 3 months at 35 C.
For assay [12] the target is unchanged. The assay can be described thus: potency ELISA, VEGF-B coated plate; 160 mg/mL formulation in glass vials, 6 months at 35 C.
Assay [13] has the same target. The assay can be described thus: potency ELISA, VEGF-B coated plate; 160 mg/mL formulation in glass vials, 9 months at 35 C.
Assay [14] shares this target. Put plainly: potency ELISA, VEGF-B coated plate; 160 mg/mL formulation in glass vials, 12 months at 25 C.
Assay [15] has the same target. The assay can be described thus: potency ELISA, VEGF-B coated plate; 160 mg/mL formulation in glass vials, 12 months at 35 C.
Assay [16] has the same target. The assay can be described thus: potency ELISA, VEGF-B coated plate; 160 mg/mL formulation in glass vials, 0 months (25 C table).
Assay [17] shares this target. The assay can be described thus: potency ELISA, VEGF-B coated plate; 160 mg/mL formulation in glass vials, 0 months (35 C table).
Assay [18] shares this target. The assay can be described thus: potency ELISA, VEGF-B coated plate, HRP detection, 4PL and parallel line analysis; 160 mg/mL formulation in glass vials, 0 months (5 C table).

Sequence of UniProt P49765 (P49765 22-207): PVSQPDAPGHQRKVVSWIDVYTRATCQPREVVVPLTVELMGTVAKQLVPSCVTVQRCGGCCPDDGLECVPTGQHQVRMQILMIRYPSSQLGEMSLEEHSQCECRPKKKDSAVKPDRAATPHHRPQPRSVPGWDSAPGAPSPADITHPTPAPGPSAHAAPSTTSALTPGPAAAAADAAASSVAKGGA

anti-VEGFB antibody (CSL346): the Surrogate potency for VEGF-B binding by ELISA (relative to CSL346 reference standard) (% relative to reference standard) in assay [1] worked out at 109; in assay [2], 96; in [3], 101; in [4], 109; in [5], 107; in assay [6], 115. The Surrogate potency for VEGF-B binding by ELISA (relative to CSL346 reference standard) (% relative to reference standard) in assay [7] came to 110; in assay [8], 113; in assay [9] it was 95; in assay [10], 101; in [11], 92; in assay [12] it was 95. Also, the Surrogate potency for VEGF-B binding by ELISA (relative to CSL346 reference standard) (% relative to reference standard) in [13] came to 98; in assay [14], 136; in [15], 106; in assay [16], 105; in assay [17], 105; in assay [18], 105.
